Consider one molecule from publication PMC9482650, “Quantitative fragmentomics allow affinity mapping of interactomes” (Nature Communications, 2022).

Assay in all cases: holdup assay
What all share (details): plain residues with an end cap or a label only (N-terminal biotin on a linker: (peg)3)

The target in assay [1] is T1, PTPN13_5, Q12923.
T1 sequence (Q12923 1877-1975, limits assumed, looked up): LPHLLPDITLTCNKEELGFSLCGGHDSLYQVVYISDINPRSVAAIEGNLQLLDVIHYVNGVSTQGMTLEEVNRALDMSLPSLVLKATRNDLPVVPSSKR

Assay [2] deals with T2, LNX2_4, Q8N448.
T2 sequence (Q8N448 595-690, limits assumed, looked up): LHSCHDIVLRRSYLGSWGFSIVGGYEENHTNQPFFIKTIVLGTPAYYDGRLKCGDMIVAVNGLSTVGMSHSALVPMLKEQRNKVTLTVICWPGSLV

Assay [3] deals with T3, SHANK3, Q9BYB0.
T3 sequence (Q9BYB0 641-750, limits assumed, looked up): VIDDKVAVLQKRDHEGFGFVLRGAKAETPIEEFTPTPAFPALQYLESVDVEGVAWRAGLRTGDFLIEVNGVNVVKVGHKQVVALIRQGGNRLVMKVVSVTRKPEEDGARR

The target of assay [4] is PDZD9, Q8IXQ8.
Assay [5] addresses MAST3, O60307.
Assay [6] addresses T4, PDZD8, Q8NEN9.
T4 sequence (Q8NEN9 361-459, limits assumed, looked up): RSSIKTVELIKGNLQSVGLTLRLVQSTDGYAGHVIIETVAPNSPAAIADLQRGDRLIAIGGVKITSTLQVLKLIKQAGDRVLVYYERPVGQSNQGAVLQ

The target in assay [7] is PREX1_1, Q8TCU6.
Assay [8] addresses T5, SIPA1L3, O60292.
T5 sequence (O60292 961-1052, limits assumed, looked up): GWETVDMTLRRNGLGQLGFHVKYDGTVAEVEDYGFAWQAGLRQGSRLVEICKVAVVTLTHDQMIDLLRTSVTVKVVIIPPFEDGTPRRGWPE

Assay [9] has as its target T6, MPDZ_3, O75970.
T6 sequence (O75970 372-473, limits assumed, looked up): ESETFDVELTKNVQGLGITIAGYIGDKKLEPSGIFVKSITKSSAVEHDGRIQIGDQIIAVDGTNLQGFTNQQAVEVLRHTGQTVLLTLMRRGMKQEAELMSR

Assay [10] has as its target MAGI1_4, Q96QZ7.
Assay [11] addresses T7, USH1C_3, Q9Y6N9.
T7 sequence (Q9Y6N9 447-547, limits assumed, looked up): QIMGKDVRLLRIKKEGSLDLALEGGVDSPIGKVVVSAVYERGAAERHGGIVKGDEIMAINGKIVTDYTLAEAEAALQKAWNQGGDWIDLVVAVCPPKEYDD

In assay [12] the target is DVL2, O14641.
Assay [13] addresses LMO7, Q8WWI1.
Assay [14] deals with T8, NHERF3_2, Q5T2W1.
T8 sequence (Q5T2W1 129-225, limits assumed, looked up): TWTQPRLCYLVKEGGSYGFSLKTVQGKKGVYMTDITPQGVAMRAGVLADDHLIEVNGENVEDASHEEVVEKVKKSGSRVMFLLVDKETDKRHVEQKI

Assay [15] concerns the target T9, PDZD7_2, Q9H5P4.
T9 sequence (Q9H5P4 205-303, limits assumed, looked up): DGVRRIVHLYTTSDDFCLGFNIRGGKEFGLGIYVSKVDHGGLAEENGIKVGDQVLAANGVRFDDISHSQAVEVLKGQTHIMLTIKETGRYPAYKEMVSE

In assay [16] the target is T10, NHERF1_1, O14745.
T10 sequence (O14745 9-104, limits assumed, looked up): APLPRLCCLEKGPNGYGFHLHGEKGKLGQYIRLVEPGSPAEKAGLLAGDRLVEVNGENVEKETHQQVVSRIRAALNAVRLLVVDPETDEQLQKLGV

Assay [17] addresses SDCBP_1, O00560.
The target of assay [18] is NHERF4_3, Q86UT5.
Assay [19] addresses PDZRN4_2, Q6ZMN7.
The target of assay [20] is Inadl_7, Q8NI35.
The target of assay [21] is T11, USH1C_2, Q9Y6N9.
T11 sequence (Q9Y6N9 206-303, limits assumed, looked up): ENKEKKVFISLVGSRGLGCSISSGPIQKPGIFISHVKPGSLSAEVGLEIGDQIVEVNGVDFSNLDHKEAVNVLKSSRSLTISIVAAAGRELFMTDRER

Assay [22] has as its target T12, MPDZ_13, O75970.
T12 sequence (O75970 1982-2070, limits assumed, looked up): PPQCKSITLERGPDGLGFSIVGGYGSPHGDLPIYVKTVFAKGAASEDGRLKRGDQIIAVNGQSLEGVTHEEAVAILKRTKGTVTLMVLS

Assay [23] deals with MAGI3_4, Q5TCQ9.
The target of assay [24] is T13, MPDZ_6, O75970.
T13 sequence (O75970 1003-1099, limits assumed, looked up): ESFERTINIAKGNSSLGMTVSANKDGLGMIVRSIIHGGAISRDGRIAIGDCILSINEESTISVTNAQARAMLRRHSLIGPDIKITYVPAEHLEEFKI

As usually defined, the pKd is −log10 of the Kd, conventionally taken in molar units.

LMO7, Q8WWI1, sequence (Q8WWI1 1037-1138): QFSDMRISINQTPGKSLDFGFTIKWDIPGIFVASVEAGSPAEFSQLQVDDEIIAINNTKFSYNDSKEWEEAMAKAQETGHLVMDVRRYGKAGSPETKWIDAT
MAST3, O60307, sequence (O60307 945-1048): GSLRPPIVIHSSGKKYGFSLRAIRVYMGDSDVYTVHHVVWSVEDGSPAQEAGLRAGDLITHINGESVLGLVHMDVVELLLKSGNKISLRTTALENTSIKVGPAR
PDZRN4_2, Q6ZMN7, sequence (Q6ZMN7 389-498): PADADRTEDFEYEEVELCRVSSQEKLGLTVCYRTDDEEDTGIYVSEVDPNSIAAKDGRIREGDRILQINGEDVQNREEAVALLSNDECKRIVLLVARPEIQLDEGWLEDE
DVL2, O14641, sequence (O14641 260-359): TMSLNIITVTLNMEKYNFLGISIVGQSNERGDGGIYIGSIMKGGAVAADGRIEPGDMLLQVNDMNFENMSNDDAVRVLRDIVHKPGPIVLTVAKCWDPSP
MAGI1_4, Q96QZ7, sequence (Q96QZ7 other isoform, or with tags, fused parts or gaps): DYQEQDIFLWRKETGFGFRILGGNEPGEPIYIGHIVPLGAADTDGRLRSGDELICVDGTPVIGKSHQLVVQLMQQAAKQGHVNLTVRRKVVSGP
PDZD9, Q8IXQ8, sequence (Q8IXQ8 23-120): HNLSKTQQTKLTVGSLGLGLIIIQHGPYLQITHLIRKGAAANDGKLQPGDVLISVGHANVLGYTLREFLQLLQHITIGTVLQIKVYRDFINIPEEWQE
Inadl_7, Q8NI35, sequence (Q8NI35 1219-1332): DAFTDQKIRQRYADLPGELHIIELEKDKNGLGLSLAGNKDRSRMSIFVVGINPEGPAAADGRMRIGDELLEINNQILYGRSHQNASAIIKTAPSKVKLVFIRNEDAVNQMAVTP
SDCBP_1, O00560, sequence (O00560 111-198): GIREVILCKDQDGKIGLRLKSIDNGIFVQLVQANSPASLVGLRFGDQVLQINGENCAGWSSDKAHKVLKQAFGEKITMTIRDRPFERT
MAGI3_4, Q5TCQ9, sequence (Q5TCQ9 716-815): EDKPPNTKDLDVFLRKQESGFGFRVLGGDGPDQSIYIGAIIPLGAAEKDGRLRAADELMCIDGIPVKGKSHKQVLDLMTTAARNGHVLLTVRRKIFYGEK
PREX1_1, Q8TCU6, sequence (Q8TCU6 608-718): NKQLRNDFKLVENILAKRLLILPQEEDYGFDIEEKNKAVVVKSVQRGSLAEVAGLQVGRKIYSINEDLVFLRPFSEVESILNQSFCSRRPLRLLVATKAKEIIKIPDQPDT
NHERF4_3, Q86UT5, sequence (Q86UT5 325-412): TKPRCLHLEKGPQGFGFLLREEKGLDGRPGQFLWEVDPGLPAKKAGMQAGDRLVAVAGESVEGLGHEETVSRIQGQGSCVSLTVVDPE

On to NLNSSEGVPDLLV [SARS-CoV-E, P59637], for which the pKd entry was “below the threshold” in assay [1]; 3.74 in [2]; “below the threshold” in assay [3]; “below the threshold” in [4]; “below the threshold” in [5]; “below the threshold” in assay [6]. For the same molecule, the pKd entry in assay [7], in assay [8], in assay [9], in assay [10], in assay [11] and in [12] was “below the threshold” throughout. Moreover, the pKd result in assay [13], in [14], in assay [15], in assay [16], in assay [17] and in assay [18] was “below the threshold” throughout. For the same molecule, the pKd in [19] is 4.05; in assay [20], “below the threshold”; in [21], “below the threshold”; in [22], “below the threshold”; in [23], “below the threshold”; in [24], “below the threshold”.
